Data taken from the supplement of paper PMC10567573.
± gives the standard deviation.

Assay: protein stability index of a GFP-peptide fusion (GPS, HEK-293T) (PSI 1-6); higher = more stable
[1] = treatment: DMSO, c terminus: a fixed tail appended
[2] = treatment: MLN4924 1 uM, 8 h, c terminus: a fixed tail appended
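Further: 24-mer peptide tiles fused after GFP, lentivirally expressed, FACS-sorted into six equal bins by GFP/DsRed ratio, decoded by Illumina sequencing, PSI is the read-weighted mean bin number.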

Sequence | protein stability index [1] | protein stability index [2] | protein stability index (treatment: DMSO, c terminus: native) | protein stability index (treatment: MLN4924 1 uM, 8 h, c terminus: native)
QDFNTMFTNCYIYNKPTDDIVLMA [BRD3] | 2.12 ± 0.28 | 2.23 ± 0.25 | – | –
QDPQLHSPFSGSLHAPPAFYSTSS [VENTX] | 3.65 ± 0.2 | 3.75 ± 0.28 | – | –
QDVTVVGSAGRLLAVGTDLYGQRN [GFOD1] | 3.4 ± 0.26 | 3.63 ± 0.32 | – | –
QELQIDDNEYAYLKAIIFFDPDAK [HNF4A] | 2.53 ± 0.22 | 2.72 ± 0.21 | – | –
QFGIKDVFDNAIRAALISRRHLQF [RHOBTB1] | 2.62 ± 0.38 | 2.59 ± 0.46 | – | –
QFGLLSFFFAVLHAIYSLSYPMRR [STEAP1] | 3.28 ± 1 | 2.058 ± 0.016 | – | –
QFGQDGPISVHCSAGVGRTGVFIT [PTPRD] | 2.46 ± 0.48 | 2.15 ± 0.22 | – | –
QFISRFLEGQSGVTIKHVACGDFF [NEK8] | 2.51 ± 0.47 | 2.39 ± 0.37 | – | –
QFLNDRLASYLEKVRQLERDNAEL [KRT33B] | 3.18 ± 0.18 | 3.33 ± 0.28 | – | –
QGGKDFNVPLSISRLTPGGKAAQA [PDLIM7] | 4.23 ± 0.26 | 4.35 ± 0.15 | – | –
QGTTVPAHRAILVARCEVMAAMFN [RHOBTB3] | 2.1 ± 0.18 | 2.17 ± 0.097 | – | –
QKAGVTRSGRLILWEAPPLGAGGG [NEK8] | 3.31 ± 0.29 | 2.95 ± 0.32 | – | –
QLEKPKPVKPVTFSTGIKMGQHIS [MNAT1] | 3.36 ± 0.15 | 3.44 ± 0.41 | – | –
QLERPLPLTSVCYPQDLPRPLRSR [TRAF3IP2] | 4.05 ± 0.21 | 4.1 ± 0.24 | – | –
QLRNCLRILMGELSNHHDHHDEFC [BEX3] | 2.28 ± 0.41 | 2.21 ± 0.12 | – | –
QQQIHHIKNLYAFNLFCQKRFDES [VPS39] | 2.29 ± 0.11 | 2.42 ± 0.15 | – | –
QRNGLVFIYDMCGSNYANFELDLG [PTPN9] | 2.84 ± 0.23 | 2.37 ± 0.57 | – | –
QRRPRVLSCLHSVCEQCLQILYES [RNF208] | 2.32 ± 0.17 | 2.64 ± 0.54 | – | –
QRRTEASRNAADKERAAGGGAGSS [GOLPH3] | 5.54 ± 0.23 | 5.36 ± 0.15 | – | –
QRVPKVLVENAKNFPQCVLEISDQ [EFHC1] | 3.49 ± 0.19 | 3.81 ± 0.29 | – | –
QRYEHGRTLKSYLGLTNQSRRYNR [ZNF649] | 3.39 ± 0.21 | 3.59 ± 0.29 | – | –
QSSGKILLCPLCQEEEQAETPMAP [TRIM15] | 3.79 ± 0.36 | 4.28 ± 0.31 | – | –

Sequence | protein stability index [1] | protein stability index [2] | protein stability index (treatment: DMSO, c terminus: native) | protein stability index (treatment: MLN4924 1 uM, 8 h, c terminus: native)
QSYPSQDKPLPPPPPGSLSRTQEP [SOAT2] | 5.2 ± 0.41 | 5.08 ± 0.24 | – | –
QTIQKTTTRRIVDGKVVSETNDTK [KRT18] | 5.34 ± 0.19 | 5.31 ± 0.23 | – | –
QTSAFARQPRDELERVRVSCTIIF [TMEM175] | 2.46 ± 0.55 | 2.62 ± 0.61 | – | –
QVLFDKVCEHLNLLEKDYFGLTYR [EPB41L3] | 2.4 ± 0.13 | 2.55 ± 0.28 | – | –
QWIEVDARRLTRFTGVITQGRNSL [CPXM2] | 2.91 ± 0.6 | 2.52 ± 0.17 | – | –
QYQQVPVEIVKSDFHKPFLGGFRH [IQUB] | 2.7 ± 0.36 | 2.99 ± 0.49 | – | –
RAGTEPSDAIRVVNAVLTQIDQIK [TRIP13] | 3.37 ± 0.15 | 3.04 ± 0.27 | – | –
RAMKIPFTNDKIINLPVEEFNELL [NFE2L1] | 2.87 ± 0.2 | 3.01 ± 0.67 | – | –
RANPCLSSSNEHAAPAAKTRKQAA [ELOA2] | 5.08 ± 0.16 | 5.18 ± 0.26 | – | –
RAPSRRHGVRAKVQPQARKKEMEM [CPN1] | 4.39 ± 0.26 | 4.64 ± 0.082 | – | –
RAYQYTTLTSVQLLDCFGIPVLMA [SLC35F2] | 3.13 ± 0.64 | 2.66 ± 0.85 | – | –
RCGVGVSVLDDLLYAVGGHDGSSY [KLHL20] | 2.36 ± 0.38 | 2.13 ± 0.42 | – | –
RCVKSIIRQVLQGLDYLHSKCKII [SRPK2] | 2.73 ± 0.88 | 2.79 ± 0.59 | – | –
REMSKTFIIGELHPDDRPKLNKPP [CYB5A] | 3.95 ± 0.23 | 4.05 ± 0.28 | – | –
RENEELSARYLSQCQEAEQARAEL [FBF1] | 5.38 ± 0.16 | 5.34 ± 0.09 | – | –
RENILVSLGAVGEGFHNYHHSFPY [SCD] | 2.22 ± 0.13 | 2.11 ± 0.14 | – | –
REPDWGDGDAPGSLLPAQVAACAQ [CEBPD] | 5.04 ± 0.28 | 4.99 ± 0.47 | – | –
RFAWPKVLKISYKRNNFYIKIRPG [EPB41L3] | 2.89 ± 0.63 | 2.2 ± 0.82 | – | –
RFYFENLLAKNSKPIHTTILNPHV [CAMK2B] | 2.2 ± 0.11 | 2.23 ± 0.23 | – | –
RGCLHSHGLQEGKDLFTQRQNSAP [CDC25A] | 3.72 ± 0.36 | 3.62 ± 0.33 | – | –
RGEQTTSQVSWEQDLKLFLQEPGV [FCHSD1] | 4.01 ± 0.27 | 4.06 ± 0.43 | – | –
RGFSGGILAFLVLEAVAGALVVAL [TSPAN10] | 2.78 ± 0.9 | 2.43 ± 0.41 | – | –

Sequence | protein stability index [1] | protein stability index [2] | protein stability index (treatment: DMSO, c terminus: native) | protein stability index (treatment: MLN4924 1 uM, 8 h, c terminus: native)
RGGDGEVASAPLQPPVPSLSEVKP [TRADD] | 5.34 ± 0.36 | 5.04 ± 0.58 | – | –
RGLIPVKRGPSSRSGGPPPKKSAP [RBMY1A1] | 4.3 ± 0.58 | 4.73 ± 0.28 | – | –
RIDGKLDSPSRSPSKVEVTEKTTT [C2CD2L] | 5.42 ± 0.21 | 5.46 ± 0.11 | – | –
RKPDPMCVFTYVQSLYNHLRRFE [SMTNL2] | – | – | 2.74 ± 0.62 | 2.72 ± 0.36
RKPDYTAYVAMIPQCIKEEDTPSD [ATF4] | 4.47 ± 0.25 | 4.62 ± 0.21 | – | –
RKSSFAFYQAVRDLLPVWLLEDMR [ANKRD9] | 3.03 ± 0.99 | 2.21 ± 0.38 | – | –
RLAELEAQVRKLELERAQHELLLG [FBF1] | 2.97 ± 0.22 | 2.87 ± 0.14 | – | –
RLASFDSSGKLICSRTTGYQILTL [GMCL1] | 2.63 ± 0.93 | 2.55 ± 0.19 | – | –
RLEELTNRLASLQQENKVLKIELE [CCDC6] | 3.65 ± 0.23 | 3.78 ± 0.38 | – | –
RLICDFPFDGLLEERALLLGRMGK [VPS39] | 2.28 ± 0.25 | 2.28 ± 0.12 | – | –
RLINHSKCGNCQTKLHDIDGVPHL [KMT5A] | 2.67 ± 0.45 | 2.64 ± 0.36 | – | –
RLKKVENIKIWLSLRSYLKRRGPQ [PHTF1] | 2 ± 0.65 | 2.25 ± 0.64 | – | –
RLLSVPELCHHVAEVWVSGTIFIR [RETREG3] | 2.96 ± 0.4 | 2.69 ± 0.53 | – | –
RLMSFRPICSANHKESKMTIFEKE [CRYBA1] | 3.14 ± 0.16 | 3.5 ± 0.21 | – | –
RLRQLKVRNDSCVVHEDFREDILS [PKD2L1] | 3.47 ± 0.43 | 3.65 ± 0.43 | – | –
RLSNNQRYLFLDGDSHYEIEIVHI [ZFYVE21] | 3.21 ± 0.56 | 2.21 ± 0.53 | – | –
RLVQLLVRAHQDTQRRTSMGGTQQ [CTNNB1] | 2.23 ± 0.25 | 2.54 ± 0.54 | – | –
RMLQREGCFRSQGASLRLAVEDGL [M1AP] | 3.1 ± 0.22 | 2.94 ± 0.14 | – | –
RMQALLIRERILGPSHPDTSYYIR [FEM1C] | 2.2 ± 0.17 | 2.18 ± 0.44 | – | –
RMYCSDLLNPNLKDTVICAMKITQ [SPACA3] | 2.15 ± 0.42 | 2.05 ± 0.17 | – | –
RNTPIEALCENFPEEMATYLRYVR [CSNK1G1] | 2.84 ± 0.26 | 2.9 ± 0.56 | – | –
